Data taken from doi:10.1101/2021.02.07.430181.

Key:
Test in all cases: SAXS
[1] = target: TrK13-A578S (truncated and strep-tagged recombinant PfKelch13 with A578S) (P. falciparum 3D7)
[2] = target: TrK13-C580Y (truncated and strep-tagged recombinant PfKelch13 with C580Y) (P. falciparum 3D7)
[3] = target: TrK13-R539T (truncated and strep-tagged recombinant PfKelch13 with R539T) (P. falciparum 3D7)
[4] = target: TrK13-WT (truncated and strep-tagged recombinant PfKelch13, wild type) (P. falciparum 3D7)

Work on “TrK13-A578S (truncated and strep-tagged recombinant PfKelch13 with A578S) (domain or fragment)” yielded a stoichiometry N [1] of 6.
“TrK13-C580Y (truncated and strep-tagged recombinant PfKelch13 with C580Y) (domain or fragment)” showed a stoichiometry N [2] of 6.
“TrK13-R539T (truncated and strep-tagged recombinant PfKelch13 with R539T) (domain or fragment)” showed a stoichiometry N [3] of 6.
With “TrK13-WT (truncated and strep-tagged recombinant PfKelch13, wild type) (domain or fragment)” the stoichiometry N [4] was 6.
